T1: AmtR (Corynebacterium glutamicum ATCC 14067, UniProt H7C699 1-222)
T1 sequence: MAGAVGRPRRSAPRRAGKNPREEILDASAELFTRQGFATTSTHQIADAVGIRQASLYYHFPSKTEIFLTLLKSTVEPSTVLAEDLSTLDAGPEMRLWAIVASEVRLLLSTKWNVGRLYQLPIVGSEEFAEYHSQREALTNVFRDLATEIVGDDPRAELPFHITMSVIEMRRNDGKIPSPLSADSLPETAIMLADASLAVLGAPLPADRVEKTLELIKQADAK

B1: PhyuB-1 (dsDNA)
DNA 1: TTGAAAACTTTTCGATAGAGCAATAGAAATTTCCCAGCCCAA
DNA 2: TTGGGCTGGGAAATTTCTATTGCTCTATCGAAAAGTTTTCAA
B2: PcreT-2 (oligos PcrnT-2-S/A) (dsDNA)
DNA 1: ATTTATATTCTTTTCTATCACCCTATAGAAACATATTGGACG
DNA 2: CGTCCAATATGTTTCTATAGGGTGATAGAAAAGAATATAAAT
B3: PcreT-1 (oligos PcrnT-1-S/A) (dsDNA)
DNA 1: ACCACCAATGAAACCTATCGGTCTATAGAAATTGACATTGCT
DNA 2: AGCAATGTCAATTTCTATAGACCGATAGGTTTCATTGGTGGT
B4: PhyuB-2 (dsDNA)
DNA 1: CCCGGGGTGATTTTCTATCGTGTGATAGGTTTAATTCTGTTG
DNA 2: CAACAGAATTAAACCTATCACACGATAGAAAATCACCCCGGG

Biological target: T1, AmtR
Assay: EMSA; EMSA, 20 ul: 10 mM Tris pH 7.0, 50 mM KCl, 1 mM DTT, 5 mM MgCl (so in the source), 10 mM EDTA, 2.5% glycerol, 0.05% NP-40, 50 ng/ul poly(dIdC); 100 ng DNA, 0-0.8 ug AmtR; 6% native PAGE, 0.5x TBE, GelRed; temperature not stated
Details: protein: recombinant; tags: C-terminal His6; chain copies: 2; blunt

Binder | binding result
B1 | binds
B2 | binds
B3 | binds
B4 | binds

— publication PMC8864220, “Transcriptional Regulation of the Creatine Utilization Genes of Corynebacterium glutamicum ATCC 14067 by AmtR, a Central Nitrogen Regulator”
